From article PMC6292502 (Nature structural & molecular biology, 2018)

Tests used:
cryo-EM structure = target: the molecule itself; test: cryo-EM structure
Cep3;Ctf13;Skp1;Ndc10 = Cep3;Ctf13;Skp1;Ndc10 (Saccharomyces cerevisiae;Saccharomyces …, UniProt P40969;P35203;P52286;P32504 1-608;1-478;1-194;1-956, |||); test: cryo-EM
Chain of Cep3;Ctf13;Skp1;Ndc10 (P40969 whole entry, chain 1 of 3): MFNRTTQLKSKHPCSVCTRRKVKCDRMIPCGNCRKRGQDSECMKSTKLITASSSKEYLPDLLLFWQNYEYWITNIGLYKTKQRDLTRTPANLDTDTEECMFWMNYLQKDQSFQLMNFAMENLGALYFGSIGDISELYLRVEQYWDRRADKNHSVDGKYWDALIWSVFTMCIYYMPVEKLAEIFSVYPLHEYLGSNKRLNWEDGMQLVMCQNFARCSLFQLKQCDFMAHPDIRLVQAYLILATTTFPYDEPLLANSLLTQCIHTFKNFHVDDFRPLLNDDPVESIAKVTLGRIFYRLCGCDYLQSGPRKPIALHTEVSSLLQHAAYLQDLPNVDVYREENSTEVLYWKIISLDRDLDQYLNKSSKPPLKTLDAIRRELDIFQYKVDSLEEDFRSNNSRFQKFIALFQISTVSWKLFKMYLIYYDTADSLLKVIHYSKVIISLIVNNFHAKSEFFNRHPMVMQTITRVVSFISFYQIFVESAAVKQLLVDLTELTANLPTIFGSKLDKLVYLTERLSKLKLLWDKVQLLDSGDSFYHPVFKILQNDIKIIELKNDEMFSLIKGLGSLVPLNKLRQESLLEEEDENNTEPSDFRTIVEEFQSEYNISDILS
Chain of Cep3;Ctf13;Skp1;Ndc10 (P35203 whole entry, chain 2 of 3): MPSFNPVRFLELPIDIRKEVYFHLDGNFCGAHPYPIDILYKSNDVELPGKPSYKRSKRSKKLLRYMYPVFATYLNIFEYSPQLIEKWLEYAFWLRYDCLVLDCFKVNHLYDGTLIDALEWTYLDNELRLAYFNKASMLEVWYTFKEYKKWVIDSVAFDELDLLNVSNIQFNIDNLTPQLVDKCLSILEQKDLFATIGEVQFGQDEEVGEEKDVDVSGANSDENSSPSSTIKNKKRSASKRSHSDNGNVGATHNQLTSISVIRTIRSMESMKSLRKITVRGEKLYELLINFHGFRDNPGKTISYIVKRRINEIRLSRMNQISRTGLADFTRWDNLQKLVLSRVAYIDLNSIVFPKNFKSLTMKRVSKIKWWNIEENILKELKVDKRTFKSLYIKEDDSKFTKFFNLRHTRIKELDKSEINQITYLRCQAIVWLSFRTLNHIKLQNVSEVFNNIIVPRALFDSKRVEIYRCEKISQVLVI
Chain of Cep3;Ctf13;Skp1;Ndc10 (P52286 whole entry, chain 3 of 3): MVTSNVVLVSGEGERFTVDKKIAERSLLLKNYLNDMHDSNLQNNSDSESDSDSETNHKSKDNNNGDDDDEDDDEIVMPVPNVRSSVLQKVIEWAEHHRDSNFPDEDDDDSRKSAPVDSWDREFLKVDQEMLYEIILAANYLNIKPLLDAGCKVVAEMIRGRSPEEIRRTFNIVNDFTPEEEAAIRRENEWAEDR

B1: Ndc10 (natural protein)
chain: MRSSILFLLKLMKIMDVQQQQEAMSSEDRFQELVDSLKPRTAHQYKTYYTKYIQWCQLNQIIPTPEDNSVNSVPYKDLPISAELIHWFLLDTLITDDKPGEKREETEDLDEEEENSFKIATLKKIIGSLNFLSKLCKVHENPNANIDTKYLESVTKLHTHWIDSQKAITTNETNNTNTQVLCPPLLKVSLNLWNPETNHLSEKFFKTCSEKLRFLVDFQLRSYLNLSFEERSKIRFGSLKLGKRDRDAIIYHKVTHSAEKKDTPGHHQLLALLPQDCPFICPQTTLAAYLYLRFYGIPSVSKGDGFPNLNADENGSLLQDIPILRGKSLTTYPREETFSNYYTTVFRYCHLPYKRREYFNKCNLVYPTWDEDTFRTFFNEENHGNWLEQPEAFAFPDKIPFDFKKIMNFKSPYTSYSTNAKKDPFPPPKDLLVQIFPEIDEYKRHDYEGLSQNSRDFLDLMEVLRERFLSNLPWIYKFFPNHDIFQDPIFGNSDFQSYFNDKTIHSKGSPILSFDILPGFNKIYKNKTNFYSLLIERPSQLTFASSHNPDTHPTQKQESEGPLQMSQLDTTQLNELLKQQSFEYVQFQTLSNFQILLSVFNKIFEKLEMKKSSRGYILHQLNLFKITLDERIKKSKIDDADKFIRDNQPIKKEENIVNEDGPNTSRRTKRPKQIRLLSIADSSDESSTEDSNVFKKDGESIEDGAYGENEDENDSEMQEQLKSMINELINSKISTFLRDQMDQFELKINALLDKILEEKVTRIIEQKLGSHTGKFSTLKRPQLYMTEEHNVGFDMEVPKKLRTSGKYAETVKDNDDHQAMSTTASPSPEQDQEAKSYTDEQEFMLDKSIDSIEGIILEWFTPNAKYANQCVHSMNKSGNKSWRANCEALYKERKSIVEFYIYLVNHESLDRYKAVDICEKLRDQNEGSFSRLAKFLRKWRHDHQNSFDGLLVYLSN
- binding result (cryo-EM structure): binds

B2: CEN3 DNA (147 bp CEN3) (dsDNA)
DNA 1: ATCAAATAGTACAAATAAGTCACATGATGATATTTGATTTTATTATATTTTTAAAAAAAGTAAAAAATAAAAAGTAGTTTATTTTTAAAAAATAAAATTTAAAATATTAGTGTATTTGATTTCCGAAAGTTAAAAAAGAAATAGTAAGAAGAT
DNA 2: ATCTTCTTACTATTTCTTTTTTAACTTTCGGAAATCAAATACACTAATATTTTAAATTTTATTTTTTAAAAATAAACTACTTTTTATTTTTTACTTTTTTTAAAAATATAATAAAATCAAATATCATCATGTGACTTATTTGTACTATTTGAT
- binding result (Cep3;Ctf13;Skp1;Ndc10): binds
